Test results from patent publication US20250346679A1 (INVOX PHARMA, published 2025).
Numbering of substitutions follows the chain as printed.

B1: FS22-172-003-AA/E05v2 (bispecific antibody, human IgG1, kappa, L234A L235A)
heavy: EVQLVQSGAEVKRPGASVKVSCKASGYTFTSYGISWVRQAPGQGLEWMGWISAYSGGTNYAQKLQGRVTMTTDTSTSTAYMELRSLRSDDTAVYYCARDLFPTIFGVSYYYYWGQGTLVTVSSASTKGPSVFPLAPSSKSTSGGTAALGCLVKDYFPEPVTVSWNSGALTSGVHTFPAVLQSSGLYSLSSVVTVPSSSLGTQTYICNVNHKPSNTKVDKKVEPKSCDKTHTCPPCPAPEAAGGPSVFLFPPKPKDTLMISRTPEVTCVVVDVSHEDPEVKFNWYVDGVEVHNAKTKPREEQYNSTYRVVSVLTVLHQDWLNGKEYKCKVSNKALPAPIEKTISKAKGQPREPQVYTLPPSRDELPYIIPPYNQVSLTCLVKGFYPSDIAVEWESNGQPENNYKTTPPVLDSDGSFFLYSKLTVGADRWLEGNVFSCSVMHEALHNHYTQKSLSLSPG
light: DIQMTQSPSTLSASVGDRVTITCRASQSISGRLAWYQQKPGKAPNLLIYEASNLESGVPSRFSGSGSGTEFTLTISSLQPEDFATYYCQQSYSTPRVTFGQGTKVEIKRTVAAPSVFIFPPSDEQLKSGTASVVCLLNNFYPREAKVQWKVDNALQSGNSQESVTEQDSKDSTYSLSSTLTLSKADYEKHKVYACEVTHQGLSSPVTKSFNRGEC
B2: FS22-172-003-AA/G12v2 (bispecific antibody, human IgG1, kappa, L234A L235A)
heavy: B1 heavy
light: DIQMTQSPSTLSASVGDRVTITCRASQSISGRLAWYQQKPGKAPNLLIYEASNLESGVPSRFSGSGSGTEFTLTISSLQPEDFATYYCQQSYSWPRTFGQGTKVEIKRTVAAPSVFIFPPSDEQLKSGTASVVCLLNNFYPREAKVQWKVDNALQSGNSQESVTEQDSKDSTYSLSSTLTLSKADYEKHKVYACEVTHQGLSSPVTKSFNRGEC
B3: FS22-053-008-AA/E05v2 (bispecific antibody, human IgG1, kappa, L234A L235A)
heavy: B1 heavy with P365N, Y366P, I367P, I368Y, P369L, P370F, Y371S, G424D, A425Y, D426W
light: B1 light

Key:
[1] = target: T1, cPD-L1-His (Acro Biosystems, PD1-C52H4) (cynomolgus, UniProt Q9NZQ7 19-238 (human entry)); assay: SPR, mAb^2 captured on Protein A chip, antigen in flow
T1 construct: bought; also called Cyno PD-L1-His; Cynomolgus PD-L1-His; not shown: His tag of the bought product
T1 sequence (Q9NZQ7 other isoform, or with tags, fused parts or gaps): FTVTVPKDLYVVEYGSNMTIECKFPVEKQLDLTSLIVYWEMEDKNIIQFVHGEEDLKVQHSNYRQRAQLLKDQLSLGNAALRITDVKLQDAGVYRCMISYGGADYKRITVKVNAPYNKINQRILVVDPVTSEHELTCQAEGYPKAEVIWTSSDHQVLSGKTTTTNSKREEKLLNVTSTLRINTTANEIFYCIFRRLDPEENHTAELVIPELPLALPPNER
Procedure: (§1) Briefly, the anti-human CD137/PD-L1 mAb², diluted in HBS-EP buffer (GE Healthcare, BR100188) at 2 μg/ml, were injected individually on flows cell 2, 3 and 4 of a Protein A chip (GE Healthcare, 29127556) at 30 μl/min to achieve a final response of approximately 110 RU. Two different recombinant human PD-L1 antigens were used i.e. hPD-L1-His-Avi (see Example 1.3 for antigen details) and biotinylated hPD-L1-Avi-His (Acrobiosystems, PD-1-H82E5). Human and cynomolgus PD-L1-His (Acrobiosystems, PD-1-C52H4) antigens, diluted in HBS-EP buffer, were injected on flow cell 1, 2, 3 or 4 as appropriate at a concentration range of 81 nM to 0.037 nM with 3-fold dilutions for 4 min at 75 μl/min and then allowed to dissociate in buffer for 10 min. Regeneration was achieved by injecting 10 mM glycine-HCL pH1.5 (GE Healthcare, Human Antibody Capture Kit, BR00356) for 30 sec at a rate of 30 μl/min. Subtracted data (flow cell 2−flow cell 1, flow cell 3−flow cell 1, or flow cell 4−flow cell 1) were analysed using BIAevaluation 3.2 Software (GE Healthcare) to identify binding using the model 1:1 binding with mass transfer, with refractive index (RI) constant 0.

[2] = target: T2, biotinylated hPD-L1-Avi-His (Acro Biosystems, PD1-H82E5) (human, UniProt Q9NZQ7 19-238, biotinylated); assay: as above
T2 construct: bought; also called Human PD-L1-His; not shown: Avi and His tags of the bought product
T2 sequence (Q9NZQ7 19-238): as the sequence (Q9NZQ7 other isoform, or with tags, fused parts or gaps) above, with T33A, S34A, N62S, Q68R, R82Q, L173F, A185T, I192T, L215H counted along it
Procedure: as §1

[3] = target: human PD-L1, cell-surface (human, UniProt Q9NZQ7 19-290); assay: cell-based or functional assay
Sequence of human PD-L1, cell-surface (Q9NZQ7 19-290): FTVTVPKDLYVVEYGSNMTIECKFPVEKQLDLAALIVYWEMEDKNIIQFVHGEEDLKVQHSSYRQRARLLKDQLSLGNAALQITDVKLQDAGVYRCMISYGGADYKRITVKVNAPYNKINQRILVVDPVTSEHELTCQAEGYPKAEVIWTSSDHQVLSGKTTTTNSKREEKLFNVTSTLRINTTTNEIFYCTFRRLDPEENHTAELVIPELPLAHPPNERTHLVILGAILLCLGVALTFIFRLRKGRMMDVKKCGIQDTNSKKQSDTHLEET

[4] = target: human CD137, cell-surface (human, UniProt Q07011 24-255); assay: cell-based or functional assay
[5] = target: T3, cynomolgus CD137, cell-surface (cynomolgus, UniProt Q07011 24-255 (human entry)); assay: cell-based or functional assay
T3 chain: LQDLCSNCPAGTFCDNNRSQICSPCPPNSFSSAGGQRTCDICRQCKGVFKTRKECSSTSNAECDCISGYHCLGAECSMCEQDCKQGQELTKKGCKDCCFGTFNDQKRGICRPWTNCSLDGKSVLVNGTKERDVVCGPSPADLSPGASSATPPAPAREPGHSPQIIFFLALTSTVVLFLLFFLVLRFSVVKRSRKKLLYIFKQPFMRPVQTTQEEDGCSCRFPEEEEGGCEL

cCD137-mFc-Avi = target: T4, cCD137-mFc-Avi (cynomolgus; mouse); assay: SPR, mAb^2 captured by anti-human Fab, antigen in flow
T4 construct: also called cynomolgus CD137-mFc-Avi; Cyno CD137-mFc-Avi; not shown: mouse IgG2a Fc domain (mIgG2a Fc)
T4 chain: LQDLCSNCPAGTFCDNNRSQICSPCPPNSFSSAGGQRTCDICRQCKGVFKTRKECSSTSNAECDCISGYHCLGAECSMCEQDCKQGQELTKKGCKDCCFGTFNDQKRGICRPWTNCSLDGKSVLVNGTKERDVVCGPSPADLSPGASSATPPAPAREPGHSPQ
Procedure: (§2) The binding of the anti-human CD137/PD-L1 mAb² to recombinant dimeric human and cynomolgus CD137 antigens was also measured by SPR using a Biacore T200 processing unit (GE Healthcare).
(§3) Briefly, 20 μg/ml anti-human Fab antibody (GE Healthcare, Human Fab Capture kit 28958325) was coated on flow cells 1, 2, 3 and 4 of a Biacore sensor S chip CM5 (GE Healthcare, BR100530) achieving a final response of approximately 5000 RU. […] The recombinant dimeric antigens, human CD137-mFc-Avi or cynomolgus CD137-mFc-Avi (see Example 1.1 for antigen details) diluted in HBS-EP buffer, were injected on flow cell 1, 2, 3 or 4 as appropriate at a concentration range of 81 nM to 0.037 nM with 3-fold dilutions for 4 minutes at 70 μl/min and then allowed to dissociate in buffer for 10 minutes. Regeneration was achieved by injecting 10 mM glycine pH 2.1 (GE Healthcare, Human Fab Capture kit 28958325) for 60 seconds at a rate of 30 μl/min. Data analysis was performed as described in Example 9.1.

hCD137-mFc-Avi = target: T5, hCD137-mFc-Avi (human; mouse, UniProt Q07011 24-186, biotin on the Avi sequence where the biotinylated form was used); assay: as above
T5 construct: also called human CD137-mFc-Avi; dimeric human CD137; not shown: mouse IgG2a Fc domain (mIgG2a Fc)
T5 sequence (Q07011 24-186): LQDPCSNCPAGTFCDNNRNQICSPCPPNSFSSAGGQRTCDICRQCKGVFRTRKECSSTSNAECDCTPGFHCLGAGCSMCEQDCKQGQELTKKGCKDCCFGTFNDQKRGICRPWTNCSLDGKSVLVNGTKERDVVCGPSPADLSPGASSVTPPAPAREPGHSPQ
Procedure: as §2, §3

Binder	Kd [1] [nM]	Kd [2] [nM]	EC50 (nM), IFN-γ release, human MLR [3] [nM]	Emax (pg/ml), IFN-γ release, human MLR [3] [pg/mL]	EC50 (nM), hIL-2 release, CD8+ T cells, donor 171115A, HEK.hPD-L1 XL [4] [nM]	EC50 (nM), hIL-2 release, CD8+ T cells, donor 171115A, MDA-MB-231 XL [4] [nM]	EC50 (nM), hIL-2 release, CD8+ T cells, donor 171115B, HEK.hPD-L1 XL [4] [nM]	EC50 (nM), hIL-2 release, CD8+ T cells, donor 171115B, MDA-MB-231 XL [4] [nM]	EC50 (nM) (crosslinked), mIL-2 release, DO11.10.cCD137 with HEK.cyPD-L1 [5]	Emax (pg/ml) (crosslinked), mIL-2 release, DO11.10.cCD137 with HEK.cyPD-L1 [5] [pg/mL]	Kd (cCD137-mFc-Avi) [nM]	Kd (hCD137-mFc-Avi) [nM]
B1	0.59	0.5	0.03	2650	0.27	0.02	0.19	0.02	0.08	10500	1	1.5
B2	0.53	0.49			0.21	0.02	0.22	0.01	0.06	11200	1.8	2.2
B3	0.58	0.47	0.02	2800	0.16	0.01	0.11	0.02	0.06	8060	1.1	2.8
